Test results from paper PMC12623541.

Molecular target: androgen receptor (AR) (human (endogenous in LNCaP and C4-2)) (UniProt P10275)
Assay: co-IP; lysates (RIPA buffer) of LNCaP and C4-2 cells transfected with siNC or siKMT2D; immunoprecipitation with primary antibody and Protein A/G agarose at 4 °C, western blot for AR and E3 ubiquitin ligases; which protein was precipitated is not stated for this panel

Sequence of UniProt P10275 (P10275 whole entry): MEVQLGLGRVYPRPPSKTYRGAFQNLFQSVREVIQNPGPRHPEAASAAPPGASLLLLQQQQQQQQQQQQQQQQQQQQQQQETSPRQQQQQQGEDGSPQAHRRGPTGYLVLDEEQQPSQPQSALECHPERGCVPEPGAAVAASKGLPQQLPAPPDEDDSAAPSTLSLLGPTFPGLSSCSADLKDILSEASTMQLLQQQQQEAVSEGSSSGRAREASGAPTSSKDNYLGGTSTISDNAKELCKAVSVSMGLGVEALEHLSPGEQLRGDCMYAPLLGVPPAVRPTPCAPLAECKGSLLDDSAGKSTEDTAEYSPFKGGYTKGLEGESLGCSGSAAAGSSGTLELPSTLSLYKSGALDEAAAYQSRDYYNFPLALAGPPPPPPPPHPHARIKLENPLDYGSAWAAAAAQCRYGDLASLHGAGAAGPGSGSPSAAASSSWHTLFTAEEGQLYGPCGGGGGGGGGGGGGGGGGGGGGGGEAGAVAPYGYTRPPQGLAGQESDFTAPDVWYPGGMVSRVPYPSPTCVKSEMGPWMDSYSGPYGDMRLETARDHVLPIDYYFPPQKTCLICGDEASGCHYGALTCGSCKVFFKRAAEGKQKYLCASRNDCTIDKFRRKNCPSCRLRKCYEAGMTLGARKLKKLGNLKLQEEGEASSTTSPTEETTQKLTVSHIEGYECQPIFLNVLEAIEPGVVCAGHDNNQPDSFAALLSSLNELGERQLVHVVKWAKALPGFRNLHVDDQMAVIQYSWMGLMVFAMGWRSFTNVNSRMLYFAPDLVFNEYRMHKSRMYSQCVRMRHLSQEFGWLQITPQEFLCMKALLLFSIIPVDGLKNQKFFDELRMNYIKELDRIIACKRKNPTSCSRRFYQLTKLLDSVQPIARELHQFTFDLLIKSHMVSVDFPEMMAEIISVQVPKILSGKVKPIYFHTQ

- fold change of SPOP bound to AR after KMT2D knockdown against control (C4-2 cells): 1.57 fold
- fold change of SPOP bound to AR after KMT2D knockdown against control (LNCaP cells): 1.41 fold
Substance: Speckle Type BTB/POZ protein (SPOP) (from UniProt O43791 1-374) (natural protein)
